From article PMC9510766

Key:
[1] = target: recombinant Cas2C of Leptospira interrogans serovar Copenhageni (rLinCas2C) (L. interrogans serovar Copenhageni strain Fiocruz L1-130); test: SEC; size-exclusion chromatography of the Ni-NTA purified recombinant protein; conditions not shown
[2] = target: recombinant Cas2C of Leptospira interrogans serovar Lai (rLinCas2C_Lai) (L. interrogans serovar Lai); test: as above

stoichiometry N [1]	stoichiometry N [2]	Substance
2		recombinant Cas2C of Leptospira interrogans serovar Copenhageni (rLinCas2C) (enzyme)
	3	recombinant Cas2C of Leptospira interrogans serovar Lai (rLinCas2C_Lai) (enzyme)
